According to the supplement of paper PMC10126150:
± gives the standard deviation of the averaged measurements.

Tested on: ATP
Experiment: switch fluorescence ratio, 500 uM ATP over buffer (Cy3 cluster intensity, sum of 5 cycles each) (fold (ratio)); higher = stronger signal-on switching upon ATP binding; sequences stand for … in TCGTCGGCAGCGTCAGATGTGTATAAGAGACAGTTTTTTTTTTTTTTTTTTTTTTTTT…TC
Details: aptamer strand: ATP DNA aptamer (quencher-CACCTGGGGGAGTATTGCGGAGGAAGG + anchor), 100 nM annealed; ATP concentration: 500 uM
Procedure, shortened: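 Clusters with intensities outside 100-1000 RFU were excluded. The remaining Cy3-labelled switching-strand clusters on a modified Illumina MiSeq flow-cell had been annealed to 100 nM quencher-labelled ATP aptamer and imaged in selection buffer, then after 15 min with 500 uM ATP at 22 °C, for five cycles separated by NaOH stripping and re-annealing. The fluorescence ratio, averaged per switch-domain sequence, is each cluster's summed target-cycle Cy3 intensity over its summed buffer-cycle Cy3 intensity.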
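Further: ATP exposure 15 min at 22 °C before imaging.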

| Sequence | switch fluorescence ratio |
| --- | --- |
| AGGGTGCTCG | 1.02 ± 0.047 |
| TCTGGGAAAG | 1 ± 0.013 |
| CCAGGGTATC | 1.064 ± 0.0063 |
| TGGGGTGGTG | 0.9992 ± 0.0038 |
| CGCGCTGCTG | 1.03 ± 0.029 |
| TCGGAGGTCC | 0.958 ± 0.029 |
| TTCTTTTATG | 1.02 ± 0.021 |
| TTTGCTGGAT | 1.08 ± 0.046 |
| AGTTAGTAGT | 0.981 ± 0.021 |
| AGCAGTTTTT | 0.996 ± 0.028 |
| CCAGCGGTTG | 1.025 ± 0.004 |
| TTTTACTATT | 0.996 ± 0.041 |
| ATGTGGCTCT | 0.9984 ± 0.0069 |
| GGGATCATGT | 0.98 ± 0.014 |
| AACGGGTATG | 1.011 ± 0.004 |
| TTTAGTGAAC | 1.025 ± 0.0089 |
| TAGGGAAATA | 1 ± 0.051 |
| GGGGACAGTT | 1.02 ± 0.017 |
| TGCTCGTATA | 0.9852 ± 0.0062 |
| ATTAGCTCGC | 0.97 ± 0.023 |
| CCGGGCTTAG | 1.28 ± 0.047 |
| ACAGCCCGGA | 1.07 ± 0.04 |
| ACCCTGCGAG | 1.05 ± 0.032 |

| Sequence | switch fluorescence ratio |
| --- | --- |
| ATTTGTGAGA | 0.9979 ± 0.0051 |
| AGTTACGAAA | 1.11 ± 0.025 |
| GTGCTCAGGG | 1.02 ± 0.077 |
| CTTGAAAGGG | 0.997 ± 0.02 |
| TTGATGGCTA | 0.983 ± 0.021 |
| TCGGGGGTAT | 1.2 ± 0.36 |
| TGGGAGTTTC | 0.978 ± 0.01 |
| TATTCATGTT | 0.991 ± 0.029 |
| ACTAGATACG | 1.04 ± 0.018 |
| CGGGCTTTAA | 0.995 ± 0.026 |
| CGGGAAAGTT | 1.02 ± 0.04 |
| TTGTGGGTTG | 1.89 ± 1.2 |
| GTGTTAGATC | 0.98 ± 0.017 |
| GGGGAATTAG | 0.973 ± 0.008 |
| ATTGTGCATT | 0.979 ± 0.052 |
| GACGGGAGGG | 1.02 ± 0.02 |
| TCGGGAGCAG | 1.03 ± 0.054 |
| GACGTTTTGT | 0.96221 ± 0.00058 |
| TGAATCAACA | 1.04 ± 0.037 |
| TTTTGCAATT | 1.98 ± 1.3 |
| GGGTGGGATG | 0.984 ± 0.017 |
| GTTGAATCTG | 1.26 ± 0.36 |
| GGGGTAGAGT | 0.98 ± 0.017 |

| Sequence | switch fluorescence ratio |
| --- | --- |
| CTATTTCTGA | 0.931 ± 0.027 |
| TGGGGGTGGC | 1.01 ± 0.052 |
| GGGGGTAGCA | 1.05 ± 0.077 |
| TTTGATTGGT | 0.99 ± 0.038 |
| CATGTTAGTA | 1.02 ± 0.021 |
| AATCGGATTG | 1 ± 0.025 |
| CAAAGAGTAG | 1.002 ± 0.005 |
| CGCGACTTTC | 1.09 ± 0.021 |
| CCACGGGGTT | 1.06 ± 0.072 |
| GCGGTTCAGC | 0.985 ± 0.014 |
| TAATGGAGTT | 1 ± 0.029 |
| TTTGTTTCGT | 1.03 ± 0.11 |
| CGGAAAGCAG | 1.02 ± 0.028 |
| TATTATGGCA | 1.02 ± 0.08 |
| TTGTCGGCTT | 1.002 ± 0.0092 |
| TTAGGGCCTA | 0.9844 ± 0.0097 |
| AGGAAAATGG | 1 ± 0.021 |
| GCAGATTGGC | 1.034 ± 0.01 |
| TATATTACAG | 1.05 ± 0.028 |
| ATATAAAACG | 0.983 ± 0.018 |
| TAGAATTCTT | 0.997 ± 0.078 |
| GACGTGGTAG | 1.03 ± 0.016 |
| TAATGTTATT | 0.987 ± 0.017 |

| Sequence | switch fluorescence ratio |
| --- | --- |
| TGTTAAACGC | 0.945 ± 0.03 |
| AATTTGCGTT | 0.999 ± 0.013 |
| GGGGTAAGAC | 1.02 ± 0.036 |
| TGCTGTAGGG | 0.966 ± 0.053 |
| AGGTGCCGTG | 1.02 ± 0.083 |
| TGCGATACGG | 2.71 ± 0.12 |
| GAATGTTAGT | 0.964 ± 0.013 |
| TGAAAGGGGG | 0.99 ± 0.014 |
| AGTGGTTCGG | 0.993 ± 0.015 |
| AGGGAGGTGC | 1.02 ± 0.051 |
| ATGTAGGGAG | 0.998 ± 0.017 |
| TTCTTCTGGG | 0.997 ± 0.017 |
| TCATGGCGGT | 1.01 ± 0.014 |
| TGGGTGGAGA | 1.02 ± 0.021 |
| ATGTAATAGG | 0.995 ± 0.046 |
| GATGGTGGTG | 1 ± 0.029 |
| GCGGCGGTGC | 1.02 ± 0.031 |
| CTAACTGGTG | 1.2 ± 0.055 |
| GGGGTAGGCA | 0.9742 ± 0.0033 |
| GGCATTGTCT | 1.03 ± 0.023 |
| CTATTAGGGA | 0.9728 ± 0.0092 |
| GCAGGGGTTC | 1.16 ± 0.15 |
| CCGGTTTGTC | 1.02 ± 0.044 |

| Sequence | switch fluorescence ratio |
| --- | --- |
| TTGACGCAGG | 1.06 ± 0.012 |
| ACTAGAGGAC | 1 ± 0.04 |
| TCTGATGGAA | 1.06 ± 0.037 |
| TAGTTTTCAG | 1.02 ± 0.047 |
| GAGATGGAAG | 0.993 ± 0.018 |
| CCTCTTGAGG | 0.978 ± 0.016 |
| AGGGAATAAA | 1 ± 0.031 |
| GGTAAGATAG | 1.01 ± 0.017 |
| AGGGGAGGTG | 1.09 ± 0.05 |
| GCGCAGGTAA | 1.04 ± 0.013 |
| TAGCTTGGTG | 1.04 ± 0.015 |
| GTTTTTGGAT | 0.991 ± 0.0049 |
| AGGGAATTGT | 1 ± 0.037 |
| TCTAAAGGGA | 1.03 ± 0.024 |
| TTATAACTCG | 0.995 ± 0.035 |
| GCGGTTTCCT | 1.02 ± 0.037 |
| TTTTTTATA | 0.996 ± 0.032 |
| GGGGCCAAGG | 0.981 ± 0.017 |
| GGAAATGGCG | 0.981 ± 0.1 |
| TTTGAGATTT | 0.9974 ± 0.009 |
| TACAGCTGCG | 1.007 ± 0.0015 |
| GGTACGGATC | 1.03 ± 0.018 |
| CGGCCCAAGG | 1.22 ± 0.022 |

| Sequence | switch fluorescence ratio |
| --- | --- |
| TTTTTTGAGG | 0.981 ± 0.025 |
| ATAACTTATA | 1.011 ± 0.0041 |
| AAGTGGGGTT | 1.02 ± 0.029 |
| AACCTGTCGC | 1.3964 ± 0.0013 |
| ATGGATCTCA | 1 ± 0.0063 |
| GAATATTTTT | 1.02 ± 0.034 |
| TCTTGATCTA | 1.015 ± 0.0098 |
| AATGGTAATT | 0.995 ± 0.039 |
| TTCTAAAATT | 0.992 ± 0.032 |
| ATGGATGACA | 0.951 ± 0.052 |
| TAAGAGCGTA | 1.0055 ± 0.00049 |
| GGTCGTAGCC | 0.9719 ± 0.0084 |
| TAGAGGTGTG | 0.99 ± 0.019 |
| AACTGAGATT | 1.02 ± 0.024 |
| AGAACCGTGT | 0.989 ± 0.041 |
| AACTGTCAGA | 0.9903 ± 0.0036 |
| GGCTGGGGT | 1.02 ± 0.034 |
| GGGATCCAGG | 1.23 ± 0.087 |
| TATGGTTAAT | 0.982 ± 0.016 |
| TATGTAGATT | 1.017 ± 0.01 |
| GTGGGGAAAA | 0.994 ± 0.035 |
| GAGAAAATGG | 1.003 ± 0.0039 |
| TAAGGGGGCG | 1 ± 0.023 |

| Sequence | switch fluorescence ratio |
| --- | --- |
| GGCCTCTGCT | 1.02 ± 0.02 |
| TTCGCCGGCC | 1.26 ± 0.34 |
| GTGTTATATT | 1.004 ± 0.0089 |
| TGGGGCCGTG | 1.04 ± 0.04 |
| CTTTCTAGCG | 0.995 ± 0.032 |
| TTGTGATTAG | 0.982 ± 0.032 |
| GTTTTTCTGT | 1.01 ± 0.014 |
| GATTATGGGG | 1.01 ± 0.013 |
| ATGCCGGAG | 0.986 ± 0.028 |
| TCTTAAGGGA | 0.979 ± 0.025 |
| TGGTTAAAAG | 0.977 ± 0.051 |
| TTTGATATTC | 0.971 ± 0.022 |
| GGGCATGGCT | 0.99 ± 0.016 |
| CCACCGGTAT | 1.69 ± 0.048 |
| CGAGGGGCTT | 0.997 ± 0.035 |
| GTCTGGGCTG | 0.986 ± 0.014 |
| GAGGCGACTG | 1.03 ± 0.031 |
| TACGTGCATA | 1.122 ± 0.0033 |
| GGATAATAAG | 1.01 ± 0.029 |
